Measured values as given in article PMC9976902, “Interaction of human HelQ with DNA polymerase delta halts DNA synthesis and stimulates DNA single-strand annealing” (Nucleic Acids Research, 2022).

Experiments:
HelQ = target: T1, HelQ (human, UniProt Q8TDG4 1-1101); assay: EMSA; 50 mM EDTA; HelQ 100-400 nM, DNA 15 nM; EMSA: 20 mM Tris-HCl pH 7.5, 100 mg/ml BSA (so in the source), 7% glycerol, 25 mM DTT, 50 mM EDTA, 25 nM DNA (Methods; 15 nM in legend), 37 C 10 min, 5% TBE gel; settings: protein: recombinant; label: Cy5 end label; fork 1:2-25 paired with 2:27-50; 3' tail 25 nt (strand 1), 5' tail 26 nt (strand 2), 1 nt 5' overhang on strand 1
T1 sequence: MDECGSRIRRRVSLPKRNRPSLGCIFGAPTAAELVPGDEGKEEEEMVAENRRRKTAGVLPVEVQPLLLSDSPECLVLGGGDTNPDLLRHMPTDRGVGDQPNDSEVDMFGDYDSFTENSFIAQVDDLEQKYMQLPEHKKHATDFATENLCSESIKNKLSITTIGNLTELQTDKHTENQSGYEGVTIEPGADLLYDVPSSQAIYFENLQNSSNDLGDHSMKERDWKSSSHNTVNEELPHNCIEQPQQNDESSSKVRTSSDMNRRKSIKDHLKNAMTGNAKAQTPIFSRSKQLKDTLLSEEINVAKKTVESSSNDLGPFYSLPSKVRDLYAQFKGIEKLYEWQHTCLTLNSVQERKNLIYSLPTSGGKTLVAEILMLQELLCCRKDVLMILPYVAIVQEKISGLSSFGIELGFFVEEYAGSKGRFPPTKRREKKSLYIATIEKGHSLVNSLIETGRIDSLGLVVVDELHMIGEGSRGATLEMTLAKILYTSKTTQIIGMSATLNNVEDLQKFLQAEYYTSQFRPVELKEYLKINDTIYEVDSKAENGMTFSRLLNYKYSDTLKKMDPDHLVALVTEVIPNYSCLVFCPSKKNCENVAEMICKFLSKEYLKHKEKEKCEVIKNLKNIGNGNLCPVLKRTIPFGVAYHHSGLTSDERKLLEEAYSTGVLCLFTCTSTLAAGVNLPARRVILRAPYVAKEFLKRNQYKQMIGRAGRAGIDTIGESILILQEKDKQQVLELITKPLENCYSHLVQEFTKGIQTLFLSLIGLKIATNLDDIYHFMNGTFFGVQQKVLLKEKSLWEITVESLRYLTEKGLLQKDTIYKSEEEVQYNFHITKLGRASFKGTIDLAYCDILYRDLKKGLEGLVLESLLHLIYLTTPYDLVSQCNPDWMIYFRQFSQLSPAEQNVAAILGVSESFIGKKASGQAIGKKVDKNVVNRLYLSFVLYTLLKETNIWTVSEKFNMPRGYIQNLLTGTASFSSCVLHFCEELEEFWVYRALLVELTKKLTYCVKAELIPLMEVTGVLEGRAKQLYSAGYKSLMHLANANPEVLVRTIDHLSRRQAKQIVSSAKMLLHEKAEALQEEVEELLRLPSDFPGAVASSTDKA

[1] = target: T2, human DNA polymerase δ complex (PolD1-4) (human, UniProt P28340 1-1107; P49005 1-469; Q15054 1-466; Q9HCU8 1-107); assay: cell-based or functional assay
[2] = target: T3, human Pol δ sub-unit POLD3, purified individually (human, UniProt Q15054 1-466); assay: cell-based or functional assay
T3 sequence (looked up): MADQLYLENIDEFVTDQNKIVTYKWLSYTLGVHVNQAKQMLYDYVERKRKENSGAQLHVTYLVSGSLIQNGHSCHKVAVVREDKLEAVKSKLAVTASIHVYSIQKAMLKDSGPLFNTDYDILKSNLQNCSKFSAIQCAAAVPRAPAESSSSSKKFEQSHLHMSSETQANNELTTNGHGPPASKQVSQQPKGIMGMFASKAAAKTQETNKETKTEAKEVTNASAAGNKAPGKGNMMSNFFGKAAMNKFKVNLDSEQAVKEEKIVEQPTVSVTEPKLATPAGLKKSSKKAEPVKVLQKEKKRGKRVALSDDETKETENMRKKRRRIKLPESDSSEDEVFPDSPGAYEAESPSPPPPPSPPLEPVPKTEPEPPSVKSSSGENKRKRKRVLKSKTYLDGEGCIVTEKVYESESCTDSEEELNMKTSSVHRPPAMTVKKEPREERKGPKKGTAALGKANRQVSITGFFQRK

[3] = target: T2, human DNA polymerase δ complex (PolD1-4)

T2 sequence (P28340 whole entry, stated change not applied, chain 1 of 3): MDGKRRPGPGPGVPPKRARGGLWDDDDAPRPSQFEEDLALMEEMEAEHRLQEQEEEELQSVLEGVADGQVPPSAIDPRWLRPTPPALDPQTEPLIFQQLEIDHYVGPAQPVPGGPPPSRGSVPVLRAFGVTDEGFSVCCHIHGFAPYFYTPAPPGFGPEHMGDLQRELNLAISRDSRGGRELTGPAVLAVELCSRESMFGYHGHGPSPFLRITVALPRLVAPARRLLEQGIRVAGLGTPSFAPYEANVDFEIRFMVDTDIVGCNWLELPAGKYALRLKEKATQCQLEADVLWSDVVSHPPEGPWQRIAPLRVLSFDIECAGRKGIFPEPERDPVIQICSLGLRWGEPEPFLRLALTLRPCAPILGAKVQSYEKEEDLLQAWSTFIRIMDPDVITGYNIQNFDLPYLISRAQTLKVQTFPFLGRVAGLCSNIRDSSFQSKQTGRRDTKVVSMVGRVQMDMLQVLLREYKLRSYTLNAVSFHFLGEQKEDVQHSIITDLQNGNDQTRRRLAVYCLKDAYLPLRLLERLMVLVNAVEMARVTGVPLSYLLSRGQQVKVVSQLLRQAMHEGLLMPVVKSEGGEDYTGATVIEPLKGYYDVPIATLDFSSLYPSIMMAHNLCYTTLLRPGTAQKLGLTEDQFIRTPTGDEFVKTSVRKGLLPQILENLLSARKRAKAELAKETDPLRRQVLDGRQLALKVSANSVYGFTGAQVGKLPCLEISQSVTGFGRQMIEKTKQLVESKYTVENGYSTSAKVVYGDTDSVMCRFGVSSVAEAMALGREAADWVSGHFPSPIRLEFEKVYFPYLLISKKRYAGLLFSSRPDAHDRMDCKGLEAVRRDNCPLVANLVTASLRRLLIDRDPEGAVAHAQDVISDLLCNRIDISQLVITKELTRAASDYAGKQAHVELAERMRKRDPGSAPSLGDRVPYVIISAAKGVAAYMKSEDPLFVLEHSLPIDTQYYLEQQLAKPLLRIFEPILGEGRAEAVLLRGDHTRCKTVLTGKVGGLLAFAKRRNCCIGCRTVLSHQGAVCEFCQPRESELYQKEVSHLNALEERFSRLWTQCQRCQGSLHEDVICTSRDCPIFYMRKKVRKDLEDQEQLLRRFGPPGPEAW
T2 sequence (P49005 whole entry, stated change not applied, chain 2 of 3): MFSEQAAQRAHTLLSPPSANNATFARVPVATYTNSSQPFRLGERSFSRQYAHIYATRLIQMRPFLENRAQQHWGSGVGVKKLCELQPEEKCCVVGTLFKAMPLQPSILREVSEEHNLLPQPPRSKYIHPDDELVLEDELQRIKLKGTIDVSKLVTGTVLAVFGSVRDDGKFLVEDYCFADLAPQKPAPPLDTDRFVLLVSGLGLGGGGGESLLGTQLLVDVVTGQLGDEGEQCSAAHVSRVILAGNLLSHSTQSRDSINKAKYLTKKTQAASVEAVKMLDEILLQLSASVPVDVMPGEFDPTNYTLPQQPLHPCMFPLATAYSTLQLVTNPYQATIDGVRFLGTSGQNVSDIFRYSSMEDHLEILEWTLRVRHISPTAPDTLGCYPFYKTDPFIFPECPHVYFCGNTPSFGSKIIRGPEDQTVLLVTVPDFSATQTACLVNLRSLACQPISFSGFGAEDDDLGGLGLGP
T2 sequence (Q9HCU8 whole entry, stated change not applied, chain 4 of 3): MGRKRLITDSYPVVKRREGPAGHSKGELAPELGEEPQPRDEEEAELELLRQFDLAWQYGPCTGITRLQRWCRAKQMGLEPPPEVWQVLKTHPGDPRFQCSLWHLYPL

B1: forked DNA (MW12/MW14) (dsDNA)
DNA 1: GTCGGATCCTCTAGACAGCTCCATGATCACTGGCACTGGTAGAATTCGGC
DNA 2: CAACGTCATAGACGATTACATTGCTACATGGAGCTGTCTAGAGGATCCGA
B1: binds (HelQ).

B2: Human HelQ (enzyme, UniProt Q8TDG4 1-1101, looked up)
chain: MDECGSRIRRRVSLPKRNRPSLGCIFGAPTAAELVPGDEGKEEEEMVAENRRRKTAGVLPVEVQPLLLSDSPECLVLGGGDTNPDLLRHMPTDRGVGDQPNDSEVDMFGDYDSFTENSFIAQVDDLEQKYMQLPEHKKHATDFATENLCSESIKNKLSITTIGNLTELQTDKHTENQSGYEGVTIEPGADLLYDVPSSQAIYFENLQNSSNDLGDHSMKERDWKSSSHNTVNEELPHNCIEQPQQNDESSSKVRTSSDMNRRKSIKDHLKNAMTGNAKAQTPIFSRSKQLKDTLLSEEINVAKKTVESSSNDLGPFYSLPSKVRDLYAQFKGIEKLYEWQHTCLTLNSVQERKNLIYSLPTSGGKTLVAEILMLQELLCCRKDVLMILPYVAIVQEKISGLSSFGIELGFFVEEYAGSKGRFPPTKRREKKSLYIATIEKGHSLVNSLIETGRIDSLGLVVVDELHMIGEGSRGATLEMTLAKILYTSKTTQIIGMSATLNNVEDLQKFLQAEYYTSQFRPVELKEYLKINDTIYEVDSKAENGMTFSRLLNYKYSDTLKKMDPDHLVALVTEVIPNYSCLVFCPSKKNCENVAEMICKFLSKEYLKHKEKEKCEVIKNLKNIGNGNLCPVLKRTIPFGVAYHHSGLTSDERKLLEEAYSTGVLCLFTCTSTLAAGVNLPARRVILRAPYVAKEFLKRNQYKQMIGRAGRAGIDTIGESILILQEKDKQQVLELITKPLENCYSHLVQEFTKGIQTLFLSLIGLKIATNLDDIYHFMNGTFFGVQQKVLLKEKSLWEITVESLRYLTEKGLLQKDTIYKSEEEVQYNFHITKLGRASFKGTIDLAYCDILYRDLKKGLEGLVLESLLHLIYLTTPYDLVSQCNPDWMIYFRQFSQLSPAEQNVAAILGVSESFIGKKASGQAIGKKVDKNVVNRLYLSFVLYTLLKETNIWTVSEKFNMPRGYIQNLLTGTASFSSCVLHFCEELEEFWVYRALLVELTKKLTYCVKAELIPLMEVTGVLEGRAKQLYSAGYKSLMHLANANPEVLVRTIDHLSRRQAKQIVSSAKMLLHEKAEALQEEVEELLRLPSDFPGAVASSTDKA
For B2, the “FRET ratio of DNA single-strand annealing by HelQ (125 nM) with Pol δ complex (150 nM) added; 0.51 without Pol δ” value [1] was 0.76 FRET ratio and the “FRET efficiency of DNA single-strand annealing by HelQ (125 nM) with POLD3 alone (150 nM) added; 0.50 without POLD3, 0.07 with POLD3 alone” value [2] was 0.87 FRET ratio.

B3: N-HelQ R51G/R52G/R53G (domain or fragment)
chain: MDECGSRIRRRVSLPKRNRPSLGCIFGAPTAAELVPGDEGKEEEEMVAENGGGKTAGVLPVEVQPLLLSDSPECLVLGGGDTNPDLLRHMPTDRGVGDQPNDSEVDMFGDYDSFTENSFIAQVDDLEQKYMQLPEHKKHATDFATENLCSESIKNKLSITTIGNLTELQTDKHTENQSGYEGVTIEPGADLLYDVPSSQAIYFENLQNSSNDLGDHSMKERDWKSSSHNTVNEELPHNCIE
Work on B3 yielded an end point of DNA synthesis by Pol δ (40 nM) pre-mixed with N-HelQ^RGx3 (5 nM), percent of DNA as product (68.8% uninhibited) [3] of 12.7%.
